{
  "source": "paper PMC12310515",
  "about": "(2025)",
  "binders": {"B1": {"name": "KIR2DS1 (SPR protein) (receptor)", "chain": "HEGVHRKPSLLAHPGRLVKSEETVILQCWSDVMFEHFLLHREGMFNDTLRLIGEHHDGVSKANFSISRMKQDLAGTYRCYGSVTHSPYQLSAPSDPLDIVIIGLYEKPSLSAQPGPTVLAGENVTLSCSSRSSYDMYHLSREGEAHERRLPAGTKVNGTFQANFPLGPATHGGTYRCFGSFRDSPYEWSKSSDPLLVSVTGNPSNSWPSPTEPSSETGNPRHLH"}, "B2": {"name": "KEN-01 (mFc-tagged, SPR) (natural protein)", "chain": "AKGAAAAEAARIPAAIDAVIKGIVTKFGVSTESVQGLKSLFTANTYNDVTKIARAINEQYNPSSCLTGGSGADNSICPWAMENFFAARKIPGFIQREAVSMNDVIEKTVKTIVSDAPKTAETAAKKATEG"}, "B3": {"name": "KIR2DL1 (residues 27-221) (domain or fragment)", "chain": "RKPSLLAHPGRLVKSEETVILQCWSDVMFEHFLLHREGMFNDTLRLIGEHHDGVSKANFSISRMTQDLAGTYRCYGSVTHSPYQVSAPSDPLDIVIIGLYEKPSLSAQLGPTVLAGENVTLSCSSRSSYDMYHLSREGEAHERRLPAGPKVNGTFQADFPLGPATHGGTYRCFGSFHDSPYEWSKSSDPLLVSVT", "modifications": "N-linked glycan on N67 (N-acetylglucosamine-fucose core seen in the structures)"}, "B4": {"name": "LILRB1 (receptor)", "chain": "GHLPKPTLWAEPGSVITQGSPVTLRCQGGQETQEYRLYREKKTALWITRIPQELVKKGQFPIPSITWEHAGRYRCYYGSDTAGRSESSDPLELVVTGAYIKPTLSAQPSPVVNSGGNVILQCDSQVAFDGFSLCKEGEDEHPQCLNSQPHARGSSRAIFSVGPVSPSRRWWYRCYAYDSNSPYEWSLPSDLLELLVLGVSKKPSLSVQPGPIVAPEETLTLQCGSDAGYNRFVLYKDGERDFLQLAGAQPQAGLSQANFTLGPVSRSYGGQYRCYGAHNLSSEWSAPSDPLDILIAGQFYDRVSLSVQPGPTVASGENVTLLCQSQGWMQTFLLTKEGAADDPWRLRSTYQSQKYQAEFPMGPVTSAHAGTYRCYGSQSSKPYLLTHPSDPLELVVSGPSGGPSSPTTGPTSTSGPEDQPLTPTGSDPQSGLGRHLGVVIGILVAVILLLLLLLLLFLILRHRRQGKHWTSTQRKADFQHPAGAVGPEPTDRGLQWRSSPAADAQEENLYAAVKHTQPEDGVEMDTRSPHDEDPQAVTYAEVKHSRPRREMASPPSPLSGEFLDTKDRQAEEDRQMDTEAAASEAPQDVTYAQLHSLTLRREATEPPPSQEGPSPAVPSIYATLAIH"}},
  "assay_in_all_cases": "SPR",
  "key": {"[1]": {"target": "T1, KEN-02 (P. falciparum pfKE01)"}, "[2]": {"target": "T2, SEN-08 (P. falciparum pfSN01)"}, "[3]": {"target": "T3, KEN-06 (P. falciparum pfKE01)"}, "[4]": {"target": "T4, KEN-04 (P. falciparum pfKE01)"}, "[5]": {"target": "T5, SEN-01 (P. falciparum pfSN01)"}, "[6]": {"target": "T6, SEN-12 (P. falciparum pfSN01)"}, "[7]": {"target": "B3"}, "[8]": {"target": "B1"}, "[9]": {"target": "T1, KEN-02", "remark": "listed apart in the source"}, "[10]": {"target": "T2, SEN-08", "remark": "listed apart in the source"}, "[11]": {"target": "T3, KEN-06", "remark": "listed apart in the source"}, "[12]": {"target": "T4, KEN-04", "remark": "listed apart in the source"}, "[13]": {"target": "T5, SEN-01", "remark": "listed apart in the source"}, "[14]": {"target": "T6, SEN-12", "remark": "listed apart in the source"}, "[15]": {"target": "one of the six Kenyan RIFINs (pfKE01) that bound to LILRB1"}},
  "note": "Read-outs that look alike come from different tables or passages of the source.",
  "data": [
    {"binder": "B1", "values": [
      {"measurement": "Kd", "setting": "[1]", "value": 2.6, "unit": "µM"},
      {"measurement": "Kd", "setting": "[2]", "value": 2.1, "unit": "µM"},
      {"measurement": "Kd", "setting": "[3]", "value": 0.9, "unit": "µM"},
      {"measurement": "Kd", "setting": "[4]", "value": 5.4, "unit": "µM"},
      {"measurement": "Kd", "setting": "[5]", "value": 1.1, "unit": "µM"},
      {"measurement": "Kd", "setting": "[6]", "value": 0.5, "unit": "µM"}
    ]},
    {"binder": "B2", "values": [
      {"measurement": "Kd", "setting": "[7]", "value": 0.1, "unit": "µM"},
      {"measurement": "Kd", "setting": "[8]", "value": 0.3, "unit": "µM"}
    ]},
    {"binder": "B3", "values": [
      {"measurement": "Kd", "setting": "[9]", "value": 2.2, "unit": "µM"},
      {"measurement": "Kd", "setting": "[10]", "value": 3.5, "unit": "µM"},
      {"measurement": "Kd", "setting": "[11]", "value": 0.4, "unit": "µM"},
      {"measurement": "Kd", "setting": "[12]", "value": 2, "unit": "µM"},
      {"measurement": "Kd", "setting": "[13]", "value": 3.4, "unit": "µM"},
      {"measurement": "Kd", "setting": "[14]", "value": 0.4, "unit": "µM"}
    ]},
    {"binder": "B4", "values": [
      {"measurement": "Kd", "setting": "[10]", "value": 5.5, "unit": "µM"},
      {"measurement": "Kd", "setting": "[15]", "value": 2.6, "unit": "µM"}
    ]}
  ]
}
